Experimental findings from PMC7102982 are described below.

The target of this test is Xenopus laevis FANCA, full length (Xenopus laevis). The experiment in a line: cryo-EM structure; single-particle cryo-EM of the purified FANCA-FANCG complex (0.8 mg/ml, 0.003% DDM); four classes: FANCA CTD dimer at 3.35 and 3.46 A, two FANCA-FANCG complexes at 4.59 and 4.84 A.

“Xenopus laevis FANCA, full length (natural protein)” displayed a stoichiometry N of 2.

For orientation: stoichiometry N means a count of units in the complex or per binding partner.
